Source: the DeepSol protein solubility set

assay: soluble on expression in E. coli; label from the status in PepcDB or PDB records

Soluble on expression in E. coli, soluble:
MAKESVKILQGKLDVKSLIDQLNAALSEEWLAYYQYWVGALVVEGAMRADVQGEFEEHAEEERHHAQLIADRIIELEGVPVLDPKKWFELARCKYDSPTAFDSVSLLNQNVSSERCAILRYQEIANFTNGKDYTTCDIAKHILAEEEEHEQDLQDYLTDIARMKESFLKK
MRKAHIMGIEGVGMSALARLLMAEGVAVTGCDLAPGPRARRLGVPVHHGHDPGHLADEDTLVVPTPVPPDHPEVVEARKRGLRVLRRMELLAHFLAQRPSAGVTGTHGKTTTTGMLAAILLEAGLDPWVFLGGELALLPGNARPGRGPRVAEVDESDPLFREVRVSVAVATNLEADHVAPRGERAPNYHESLEALKEAMRGFLAGAKTVVVPAMDPGLLALTEGLPRRLFGPGGEVWAEAVDLSPSGASFRLVHREGPLGEVHLRVPGRHNVHNALAAALAALALGASPEAISRGLSRFPGVGRRFERVGEVGGAWVVDDYAHHPTEVQATLEAALLSGRRVRVFFQPHRLLRTQELWEAFAQALKGAHEVVVLPVYTAGERGRESPEALSDRIAKRLEDLGRPARRMDKEEALAYARATARPEDLLLFMGAGDVTLLARRLVHEG
MSLAQKVKLSTIAETLGLSTATVSLALRDSPLVAAVTRDKIKEQARALGYIYNRRAASLRTSRSGIIGVVVHDIMNPFYGEILKAIEAELDRDKQTFILSNHYDSVEKQRDFIETLLQLGGDGVIMSPAIGTPPQDIQLAEDNGMPAILIARSIEGLDVPIFRGDDAYGISLATNHLIGLGHRCIAMVGGTDQTSTGRDRYQGYVNALRKANIEVDPDLRIPGPRSKQGGFEAAVHLLSLPQKPTAVVCWNDLVAIGMMNGIARAGLVPGVDISVTGYDDLEEASIATPALTTVWNGQAEVGRSAARALLDKLSGSHEPDGIHLIKPEMRIRQSTGPLRVTEGHHHHHH
GETSVPPGSALVGPSCVMDDFRDPQRWKECAKQGKMPCYFDLIEENVYLTERKKNKSHRDIKRMQCECTPLSKDERAQGEIACGEDCLNRLLMIECSSRCPNGDYCSNRRFQRKQHADVEVILTEKKGWGLRAAKDLPSNTFVLEYCGEVLDHKEFKARVKEYARNKNIHYYFMALKNDEIIDATQKGNCSRFMNHSCEPNCETQKWTVNGQLRVGFFTTKLVPSGSELTFDYQFQRYGKEAQKCFCGSANCRGYLGGENRVSIRAAGGKMKKERSRK
MKSRYLLFFLPLIVAKYTSAATMQPFHSPEESVNSQFYLPPPPGNDDPAFRYDKEAYFKGYAIKGSPRWKQAAEDADISVENIARIFSPVVGAKISPKDTPETWNMLQNLLKVGGYYATASAKKYYMRTRPFVLFNHSTCRPEDENTLRKDGSYPSGHTAYSTLLALVLSQARPERAQELARRGWEFGQSRVICGAHWQSDVDAGRYVGAVEFARLQTIPAFQKSLAKVREELNDKNNLLSKEERPELNY
MGSSHHHHHHSSGLVPRGSHMASKRCRQCSGDSASSSTSSLSPSELPPSKKAAGGQRVTAEVEVAPITTDATSATVTAAGGAKKKATTGSPARRTSSAAKITNGDAGELIRTAEALAALNAKKSEKEIWSDVVPFVRRTTDSDFDPSRMYKFITWNVAGLRGLLKKNASALRAFMEAEKPDVLCLQETKLNVDEADANATLGVVDGYSFVDHPCAFKRGYSGTRTYMKNSTTVKGLHARCTRGFALPSEPQADAAAGSRVLVEGAGDEEGRVLTTFLSPDPDSASSSSRIALVNTYVANSGMGLTRLPYRVQSFDPSMREYLHRLDTWATENAAVPSAAAMGSGSSPHGFIWAGDLNVAERDYDRYYAGTFKSMQECSGFAPEERMSFRETMQRTNSVDIFRQLYPQAGPVYSFWSQRINGRPRNLGWRLDYFVVSSRLASYVVDCFPMPTVMGSDHCPFQMWMRHP
MADYKVKDISLAEWGRKAIELAENEMPGLMELRREYGPSQPLKGAKIAGCLHMTVQTAVLIETLKALGAELRWSSCNIFSTQDNAAAAIAKTGVPVFAWKGETDEEYEWCIAQTVKGFSGDGLPNMILDDGGDLTNLVIDRYPELVPKIFGISEETTTGVKNLYKRLSKGNLPISAINVNDSVTKSKFDNLYGCRESLVDGIKRATDVMIAGKTCCVCGYGDVGKGCAAALRAFGARVVVTEVDPINALQASMEGYQVALVEDVMADAHIFVTTTGNDDIITSDHFPHMRDDAIVCNIGHFDTEIQVGWLEANAKEHVEIKPQVDRYTMENGRHIILLAKGRLVNLGCASGHPSFVMSNSFTNQVLAQIELWSNRDNGKYPRGDKAGVFFLPKALDEKVAALHLAHVGAKLTKLTPKQAEYINCPVNGPFKPDHYRY
MISILRRGLLVLLAAFPLLALAVQTPHEVVQSTTNELLGDLKANKEQYKSNPNAFYDSLNRILGPVVDADGISRSIMTVKYSRKATPEQMQRFQENFKRSLMQFYGNALLEYNNQGITVDPAKADDGKRASVGMKVTGNNGAVYPVQYTLENIGGEWKVRNVIVNGINIGKLFRDQFADAMQRNGNDLDKTIDGWAGEVAKAKQAADNSPEKSVKLEHHHHHH

Soluble on expression in E. coli, not soluble:
MTILEELNDSSIPQRLDNHIFFGSVHSLTHTDFLVENNIRFFINVDLSTELISHIYHEVRSKFAHEIVIVNIDNDSQIPIESDLVRSFHWHNTSLLQQLIHHLDFLSGINNHGEPLTPPPESHYRNAYVQFDHPSDSVSILDKLLYGNKSEYSRTNIFQVTNEAKFQVFNDLITIFKYSIAQGGNTNSNILVLSENGSTDENLISLLMSTVLKENPTFNVYQALQFVKSIAVIPDTVRDEKILWVTGFINYQELIKKNEMYWGLGSQKGRKLTSFASPISKVERKQRRRDDQNIMRSKLPQQRQNPFCSTERPKRARCD
MGSDKIHHHHHHMLTSRKFFPSLSSLRALEALDRLGSASAVAEELALTQSAVSRQLQTLEGQMGVELIRRDRKRLSLTPAAQDYVTEIREALNRIAQASLRLQVAPAGGTVNLAILPTFGMRWLMPRLPEFSRLHPDITINMTTRLRPFNFASEPFDAALHFGEPDWPGTDRLLLRAERVLPVCAPGLLPHGAPKSPADLLRLPLLHIQTRPRAWQDWFAQMGVTCPETLPGTLYDQFATIGQAALHGLGVALLPNYVVEQDLATGRLVAAYPDAVETLGAYYLVWPRARGNDPSLRAFRHWLAAQAEPEEGLPR
MGSDKIHHHHHHMANGTTPSVGIALGSGAAKGWAHIGVLNGLAAMGIKPDKVAGCSVGALVGAAYAHDHLPELEEWVRSFSSWDVLGLMDIRWRKGGLIGGDKVFDVLQARIGDVNIENLNRPFAAVATDLYSGQEIWFTEGDLRQAVRASCSMPGILAPVRQGDRWLVDGAVVNPVPVSVSRAMGVDVVIAVDLYGYHSGRIQVLPVSMTSQKNVEAEMDMSARQETGFMDLFARGRDYVSNLTDKFSLGTKSNPGMIAVMSQSMGILEQRHKRARLMGDPPDICIVPEVGNIGTMEFHRADEAIAAGEAAVEKVAHLIEAALWKG
MGSDKIHHHHHHMSIKSDKWIRRMAAQHGMIEPFEPNPIRQVNGEKIVSYGTSSYGYDIRCADEFKVFTNINSTIVDPKNFDPNSFVEFKNDFCIIPPNSFALARTVEYFRIPRSVLTVCLGKSTYARCGIIVNVTPFEPEWEGYVTLEFSNTTPLPAKIYAGEGCAQVLFFESDEECEISYKDRGGKYQGQVGVTLPKI
MKVAIIAANGGLFDAYKVINIGTAGAAADAEVGVFFTGEGLNLIHKEAHKQWPIPEGKEHFQQGFQKANVPSIAELLQMAQEMGVKLIACQMTMDVMGLDKDQFVDGIEVAGAATFLQFAKDADITLAF
MGSDKIHHHHHHMILLNKPVAPNLQKLNSYLERVHDTGWYTNFGPLHNELTEKLEEYLGVSNLLLVSNGTLAIQLAAKVFNVKQTITTPFSFVATSSSLLWQGIDLAYSDIERSSLNICPEELEKNWKSNDSYDSLLATHVYGNPCDVQKIDEIAKKYNKKIMYDAAHAFGIKVGNKSVLSFGDASTLSFHATKVFHTVEGGAVIFKDRNHFDEAKSLINFGIQNDGTLGTPGINAKLNEYQAAVGLCLLESIDDIICHRSNLFEIYRKELSNVIELPLWHRDSNYNGAYMPILPSTEVERLKIGEQLKANNIQFRRYFYPSLDKAYLRVKSFNCPVSNYIAENALCLPLHMYMTKEDVLKITATIKEIY
GPGSMLWVDRYRPKTLKDVELYPELKEVLTRLSKAQDLPHLLFYGPSGSGKKTRAMAMLHEIYGPSVFSVRLEHKSVQVSDSKVVDIATLSSPHHIDINPSDAGNYDRAIVMQMIREIAQTVPLHSTSGNRKNVPYKVVVLNEVDKMSRTAQHALRRTMEKYMNTCRLFLLCNSTSRLIPPLRSRCLGIRVASHSKDNLKLAVQRVCEGEGRPLPSVAFLNSLALRSDGNLRRGLLMLEASALAKVDWSGNGAAIPQADWKLFLDEISHDIVAEQTPKRLHEVRLKFYDLLAQCISGETILKTLVDSLLAAVAPALQRPLIELAAKYDHNMKLGTKPILHLEAFVAAVMKLIKQQ
MGSDKIHHHHHHMDTRIRDFVKTNECYFAVNTYYHPENSVISFLRYINIDKIGNHLLKDYELDENDIRILNGERFIKVADSSKAYAILKEYYPEYLFYDEINDVLLHAVPKTNIKEILSPQKRLEEVLNEQNTEAEIKCAKLADTLHDYGLEYKNMGVSGSTVLKLNNENSDIDFVIYGMEKHKIAREILSVTFKDGVLEPLSEDFWKKAYVKRIKDGTLTYDEFVWHEKRKLNRGVVDGVMFDLLATREWDEITENYGDKKYKNLGFIQIKAKVKDDTFVFDNPAVYKVENVEILNNENNAEVLASEIEEVVSFTHTYAGSTYNGEEIIVRGKLEEVSGKETYKRVVVGTTREAFNEYVKLAK
MGSDKIHHHHHHMEIIAGYRTTSDSRYIALIKADGNNAGKIFGNTVTFSEYVDKSFRLDFGVKKMFYDTLLDIMRASSDESIKKDLVSRILLGVLYLGGDDIMLLSPSAIAVPFAVKMFKRSLEYTGFTFKVGIISVKPDHPVQFAYGAVNALMEESKIHTGEKSSIGVLVFSSTLASEGVVKSDLKNYRKEKESFLVVSNDVDDVERLLNLMELDDFGKLMELYWNPEEGRKVIRDKIRSLERFVNYADTHDFYNTLAYLIRSKAKSEENSLIKRIIDLTIKGRDDFVFPLYDYYFILKSIRVGI
MSLSGAVFKTFLTSEHASWNRFNRRLHIPNEDIVDEIQLKARMQQRHHRVYPEIGDSTIVSFRGKDYAVHFIKDGPKDDYVYKVQRITPENGCFSTLFSVFSGGVTKALERKLNERHITPLSSTWFPRTPLEGILAERGLSSLLRRVQSTERLDNRAIATRASSYSVL
MKSVMSNPTFRQDSIRMFRGRKPPQKGKPAMEIKSERSDSQHTLTITVPLGKASRNDQPPSNLTEEAAKKVAGTGRNDGKKVQFAEKLVNKTKSPSTGPSTSKKLQKSQKTQKSSKKSQKKSKKSKKSSKSK
MGSDKIHHHHHHMKLCSVTKIWDKSAHNAFTDLALYRGKLYCVFREASAHVSPDGALRILCTDNDGQDWHSVALIEADFADLRDGKLVIEGDSLFLFGGAAMHEGKGEGMRSYCWQSDDGIHWSAPRALVKEREWLWRITPHKGYFYGIAYYCHEHDGYAALYKSDANTDFYPLVEKLSQAGYVNESGLVFDEEDKAICLLRRDPLWLTDERALLGESAPPYTQWHWQTANCRVGGPVTFLYQGQLYGVVRLYDGRVRTALVAIDRQSAQIAELLTLPSGGDTSYAGVVLSDNILMVSYYSSHEGDCAIYFAKIAL
